From publication PMC10184575, “Development of an Anti-canine PD-L1 Antibody and Caninized PD-L1 Mouse Model as Translational Research Tools for the Study of Immunotherapy in Humans” (Cancer Research Communications, 2023)

Target: T1, 6X His-tagged extracellular domain of canine PD-L1 (canine, UniProt E2RKZ5)
T1 construct: canine PD-L1 (CD274), extracellular domain; also called cPD-L1-His; His-tagged cPD-L1 protein; source: ExpiCHO cell system, purified (Ni-NTA agarose)
Test: BLI; Octet RED384; His-tagged cPD-L1 loaded on NTA biosensor at 200 nmol/L; 12C10E4 antibody at 50, 100, 200 nmol/L in kinetic buffer
Settings: both partners purified

T1 sequence (E2RKZ5 entry or part of it): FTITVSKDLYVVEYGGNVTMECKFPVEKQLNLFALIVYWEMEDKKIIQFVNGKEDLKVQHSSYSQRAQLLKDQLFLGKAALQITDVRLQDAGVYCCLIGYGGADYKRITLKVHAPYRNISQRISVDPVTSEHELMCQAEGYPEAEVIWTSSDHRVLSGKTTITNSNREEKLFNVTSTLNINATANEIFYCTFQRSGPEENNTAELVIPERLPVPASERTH

B1: 12C10E4 chimeric antibody (12C10E4-cIgG; murine variable regions, canine IgG2 and canine kappa constant regions) (antibody, V domains shown)
VH: QVQLKQSGPGLVQPSQSLSITCTISGFSLTSFGVHWVRQSPGKGLEWLGVIWSGGSTDYNAAFTSRLSINKDNSKSQVFFKMNSLQADDTAIYYCARGGGPDWYFDVWGTGTTVTVSS
VL: DIVLTQSPASLAVSLGQRATISCRASESVEYYGTSLMQWYQQKPGQPPKLLIFAASNVKSGVPARFSGSGSGTDFSLNIHPVEEDDIAMYFCQQSGKVPHTFGGGTKLEIK
notes: VH of the mouse hybridoma 12C10E4; canine IgG2 heavy constant chain (called equivalent to human IgG1); VL of the mouse hybridoma 12C10E4; canine kappa light constant chain; also called 12C chimeric antibody; 12C cPD-L1 chimera antibody; source: ExpiCHO-S, transfected, purified (protein A agarose)
- Kd: 8.6 nM
